Measured values reported in paper PMC3966550.

Target: CXCR2-4A/IL (S342A/S346A/S347A/S348A and I323A/L324A) (human)
Experiment: co-IP

Chain of β-arrestin1 (P49407 whole entry): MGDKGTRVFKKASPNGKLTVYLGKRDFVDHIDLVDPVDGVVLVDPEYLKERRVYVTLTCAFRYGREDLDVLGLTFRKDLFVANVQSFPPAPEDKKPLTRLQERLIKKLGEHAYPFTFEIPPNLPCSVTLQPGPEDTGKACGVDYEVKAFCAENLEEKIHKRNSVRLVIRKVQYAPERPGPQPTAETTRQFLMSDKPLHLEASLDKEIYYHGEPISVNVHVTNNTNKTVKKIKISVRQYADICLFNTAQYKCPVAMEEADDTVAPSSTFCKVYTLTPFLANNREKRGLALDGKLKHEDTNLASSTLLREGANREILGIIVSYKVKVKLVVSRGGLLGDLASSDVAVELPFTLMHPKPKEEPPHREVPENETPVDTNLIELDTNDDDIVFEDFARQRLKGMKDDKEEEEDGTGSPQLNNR

reduction of binding (co-precipitated β-arrestin1): 90%
Substance: β-arrestin1 (from UniProt P49407 1-418) (natural protein)
